Data as given in IntAct's records for PubMed 19696444.

B1: Anosmin-1 (Homo sapiens), P23352 (parent)
chain: MVPGVPGAVLTLCLWLAASSGCLAAGPGAAAARRLDESLSAGSVQRARCASRCLSLQITRISAFFQHFQNNGSLVWCQNHKQCSKCLEPCKESGDLRKHQCQSFCEPLFPKKSYECLTSCEFLKYILLVKQGDCPAPEKASGFAAACVESCEVDNECSGVKKCCSNGCGHTCQVPKTLYKGVPLKPRKELRFTELQSGQLEVKWSSKFNISIEPVIYVVQRRWNYGIHPSEDDATHWQTVAQTTDERVQLTDIRPSRWYQFRVAAVNVHGTRGFTAPSKHFRSSKDPSAPPAPANLRLANSTVNSDGSVTVTIVWDLPEEPDIPVHHYKVFWSWMVSSKSLVPTKKKRRKTTDGFQNSVILEKLQPDCDYVVELQAITYWGQTRLKSAKVSLHFTSTHATNNKEQLVKTRKGGIQTQLPFQRRRPTRPLEVGAPFYQDGQLQVKVYWKKTEDPTVNRYHVRWFPEACAHNRTTGSEASSGMTHENYIILQDLSFSCKYKVTVQPIRPKSHSKAEAVFFTTPPCSALKGKSHKPVGCLGEAGHVLSKVLAKPENLSASFIVQDVNITGHFSWKMAKANLYQPMTGFQVTWAEVTTESRQNSLPNSIISQSQILPSDHYVLTVPNLRPSTLYRLEVQVLTPGGEGPATIKTFRTPELPPSSAHRSHLKHRHPHHYKPSPERY

Variants of: B1
Conditions: with fgfr1_human FGFR1, P11362
Chain of fgfr1_human FGFR1, P11362 (P11362 whole entry, looked up): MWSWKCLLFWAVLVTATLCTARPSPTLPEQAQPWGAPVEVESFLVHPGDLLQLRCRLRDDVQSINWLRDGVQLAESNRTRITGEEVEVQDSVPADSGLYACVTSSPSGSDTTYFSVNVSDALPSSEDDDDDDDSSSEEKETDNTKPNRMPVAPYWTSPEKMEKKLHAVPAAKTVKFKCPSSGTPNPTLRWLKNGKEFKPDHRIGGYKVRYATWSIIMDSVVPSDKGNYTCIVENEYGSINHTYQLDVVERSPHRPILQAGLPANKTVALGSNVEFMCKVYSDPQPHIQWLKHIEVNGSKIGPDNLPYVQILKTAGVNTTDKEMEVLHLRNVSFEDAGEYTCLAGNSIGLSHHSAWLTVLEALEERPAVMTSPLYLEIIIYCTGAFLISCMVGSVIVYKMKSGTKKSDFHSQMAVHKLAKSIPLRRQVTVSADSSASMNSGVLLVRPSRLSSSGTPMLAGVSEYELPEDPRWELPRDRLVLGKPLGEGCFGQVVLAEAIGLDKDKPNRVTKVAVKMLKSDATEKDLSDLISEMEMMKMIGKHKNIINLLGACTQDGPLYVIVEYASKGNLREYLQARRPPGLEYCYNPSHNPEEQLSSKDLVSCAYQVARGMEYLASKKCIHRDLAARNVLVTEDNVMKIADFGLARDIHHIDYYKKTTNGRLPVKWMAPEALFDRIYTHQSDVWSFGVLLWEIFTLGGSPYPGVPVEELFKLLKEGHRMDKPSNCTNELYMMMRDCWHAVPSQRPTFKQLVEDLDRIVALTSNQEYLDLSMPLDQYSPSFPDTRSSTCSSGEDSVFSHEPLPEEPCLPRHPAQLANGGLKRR
In the case of N267K, the “effect of a mutation on the interaction” value is reported as “disrupting interaction”.
